Experimental data as given in patent US5198419A, “Formulated medicines for enhancing the efficacy of beta-lactam antibiotics in prophylaxis and treatment against infectious disease due to pathogenic bacteria” (Immuno Japan Inc., priority 1989, dated 1993).
“Also recorded” adds a separate entry of the source.

Columns and labels:
[1] = Stability of bovine lactoferrin powder; format: physicochemical
Excerpt: The stability of bovine lactoferrin powder is also not affected by the degree of iron-saturation. […] Much care should be taken to avoid lactoferrin denaturation, especially denaturation by heat, in any formulating process. Due to its high stability, it is readily processed into mixed formulations with beta-lactam antibiotics for oral administration in any proportion, for example, freely mixed with lactose, cellulose, cellulose derivatives, magnesium stearate, and talc. One of the best ways to make lactoferrin liquid formulations, such as tincture and syrup, is adjustment of the pH to pH 3.1-4.0 by the addition of lactic acid to avoid bacterial contamination, then add paraaminobenzoic acid derivatives as preservatives against fungal contamination, and filtration through membrane filters (e.g., with pore size of 0.2 μm) into aseptic bottles.

[2] = tested on: Staphylococcus aureus 209P; assay: Example 9: time-schedule of lactoferrin administration and efficacy of amoxicillin; format: in vivo, mice, ddY; conditions: lactoferrin dosed from 12 hours before to three hours after the injection
Method: (§1) For ED50 values, a range of amounts of antibiotics is given in the examples (e.g., penicillin G: 0.4, 0.2, 0.1, 0.05 mg/mouse). To calculate the ED50, groups of mice in the monotherapy groups and groups of mice in the combined therapy groups received the indicated amount of antibiotic (e.g., one group received 0.4 mg/mouse of penicillin G, one group received 0.2 mg/mouse of penicillin G, one group received 0.1 mg/mouse of penicillin G, one group received 0.05 mg/mouse of penicillin G).
The effect of time-schedule of lactoferrin administration on the potentiation of antibiotic efficacy was examined using an experimental model similar to Example 1. Male ddY mice (n=10), five weeks old, weighing an average of 21.9 g, were used in this experiment. On day 0 all the mice were intraperitoneally injected with 1.2×10^5 CFU/mouse of Staphylococcus aureus 209P. Amoxicillin ([…], 0.625 mg/mouse) was orally given one hour after the injection.

[3] = tested on: Klebsiella pneumoniae strain 3K25; assay: Example 2: experimental infection in mice, cefpodoxime with or without apolactoferrin; format: in vivo, strain ICR; conditions: lactoferrin treated control (iron free apolactoferrin 0.4 mg p.o.)
Method: as §1
Sixty male mice, strain ICR, five weeks of age, weighing 19.3±1.1 g (mean body weight±the standard deviation) were randomly allocated into ten groups (n=6), and intraperitoneally injected with pneumobacilli, Klebsiella pneumoniae strain 3K25, 5×10^5 CFU/mouse. One hour after the injection, the first group was orally given 0.2 ml of physiological saline, the second group orally given iron free apolactoferrin (0.4 mg) in 0.2 ml of saline, the third through the sixth groups were orally given cefpodoxime (4, 2, 1, and 0.5 mg/mouse) in 0.2 ml saline, and the seventh through the tenth groups orally given the admixture of cefpodoxime (4, 2, 1, and 0.5 mg/mouse) and apolactoferrin (0.4 mg) in 0.2 ml of saline. Mice were fed ad libitum and observed for a week under the same conditions as described in Example 1.

[4] = tested on: pathogenic bacteria; assay: Potentiation of beta-lactam antibiotics by lactoferrin at the whole animal level (general statements); format: in vivo
Method: Co-administration of lactoferrin with beta-lactam antibiotics greatly reduces the antibiotic requirement, that is, 1/2 to 1/6 of the amount of the antibiotics required in monotherapy in combination with lactoferrin (combined therapy) show the same curative effects as the antibiotic treatment alone (monotherapy). Oral administration of lactoferrin is an effective route, and the dose of lactoferrin required for this potentiation is 0.5-100 mg/kg and the optimum dose may be 1-10 mg/kg.
Apolactoferrin can be utilized as a raw material to prepare lactoferrin with desired degrees of iron-saturation by adding calculated amounts of ferric ions in the presence of carbonium anions. […] Therefore, lactoferrins with various degrees of iron-saturation can be successfully utilized in this invention. The efficacy potentiation of beta-lactam antibiotics by lactoferrin is independent of the degree of the iron-saturation of lactoferrin.
When lactoferrin is orally dosed to potentiate the efficacy of beta-lactam antibiotics, either the combined formulation with the antibiotics or the formulation containing lactoferrin alone as an active ingredient can be successfully used. When lactoferrin is dosed separately from the antibiotics, the timing of the dosing is very important. The potentiating effect is the strongest when lactoferrin is given from six hours before to one hour after the antibiotic administration.

[5] = tested on: Escherichia coli #11; assay: Example 6: experimental infection in mice, ampicillin with or without apolactoferrin; format: in vivo, strain ddY; conditions: simultaneous administration of lactoferrin with ampicillin
Method: as §1
Male mice, strain ddY, five weeks old, weighing an average of 21.5 g, were randomly allocated into groups (n=10), and they were intraperitoneally injected with Escherichia coli #11, 1.2×10^6 CFU/mouse. Immediately after the injection, the untreated control group was orally given 0.2 ml of distilled water, the second through the fifth groups were treated once orally by ampicillin (8, 4, 2 and 1 mg/mouse), and the sixth through the ninth groups with ampicillin (4, 2, 1 and 0.5 mg/mouse) plus apolactoferrin (1 mg/mouse) in 0.2 ml of distilled water. The mice were fed ad libitum and observed for one week under the same conditions as described in Example 1. […] It is apparent from the results that lactoferrin not only potentiates the efficacy of the cephalosporin class but also the penicillin class of antibiotics.

[6] = tested on: Klebsiella pneumoniae 3K25; assay: Example 7: experimental infection in mice, cefaclor with or without native lactoferrin; format: in vivo, strain ddY; conditions: simultaneous oral beta-lactam antibiotics with lactoferrin one hour after i.p. injection (as shown in Table 3)
[7] = bovine lactoferrin, oral; cited from earlier work
[8] = tested on: Klebsiella pneumoniae strain 3K25; assay: Example 8: dose-response relationship of potentiation of cefpodoxime efficacy by oral lactoferrin; format: in vivo, mice, ddY
Method: as §1
The dose-response relationship of the potentiation of the antibiotic efficacy by lactoferrin was determined using the same experimental infection system as described in Example 1. Male ddY mice, five weeks of age, weighing approximate 20.3 g, were randomly allocated into groups (n=10); the first group was assigned to the cefpodoxime control (5 mg/mouse). The mice were intraperitoneally injected with pneumobacillus, Klebsiella pneumoniae strain 3K25, 3×10^5 per mouse. One hour after the injection, the antibiotic cefpodoxime (1, 0.5, 0.25 and 0.125 mg/mouse) was orally given in 0.2 ml of physiological saline.

[9] = tested on: Klebsiella pneumoniae strain 3K25; assay: Example 5: experimentally infected fed and fasted mice, cefpodoxime with or without native lactoferrin; format: in vivo, strain ICR; conditions: cefpodoxime
Method: as §1
Male mice, strain ICR, five weeks old, weighing an average of 21.6 g, were randomly allocated into sixteen groups (n =6). During the next 24 hours, eight groups were allowed free access to diet and water, while the other eight groups were fasted overnight. On the next day, all the mice were injected with 1.4×10^6 CFU/mouse of Klebsiella pneumoniae strain 3K25. The minimal lethal dose of this bacterium is […], and thus the injected dose was 1,000 times greater than the minimal lethal dose. Immediately after the injection, the fed groups were orally given cefpodoxime (10, 5, 2.5, and 1.25 mg/mouse) simultaneously with or without native lactoferrin (0.2 mg/mouse). The fasted groups also were orally given cefpodoxime (10, 5, 2.5, and 1.25 mg/mouse) simultaneously with or without native lactoferrin (0.2 mg/mouse).

[10] = tested on: Klebsiella pneumoniae strain 3K25; assay: Example 1: experimental infection in mice, cefpodoxime with or without native lactoferrin; format: in vivo, strain ICR; conditions: lactoferrin alone 0.4 mg/mouse p.o.; within 24 hours / one day after injection
Method: as §1
Sixty male mice, strain ICR, four weeks of age, body weight 19±1.0 g (mean±the standard deviation) were randomly divided into ten groups (n=6); the first group was assigned to the untreated control, the second group to the lactoferrin treated control group, the third through the sixth groups to the cephalosporin treated controls, and the seventh through the tenth groups to the combined treatment group of cephalosporin and lactoferrin. The mice were intraperitoneally injected with pneumobacillus, Klebsiella pneumoniae strain 3K25, 5×10^6 colony forming units (CFU) per mouse. The antibiotics used were orally active cephalosporin or cefpodoxime, and the bovine lactoferrin was the native one derived from cheese whey with 28.5% iron-saturation. […]

[11] = tested on: Klebsiella pneumoniae strain 3K25; assay: Example 3: experimental infection in mice, cefaclor with or without hololactoferrin; format: in vivo, strain ICR; conditions: hololactoferrin alone 0.4 mg/mouse p.o.
Method: as §1
Sixty male mice, strain ICR, five weeks of age, weighing 21.3±1.5 g (mean±the standard deviation) were randomly allocated into ten groups (n=6), and intraperitoneally injected with Klebsiella pneumoniae strain 3K25, 1×10^6 CFU/mouse. One hour after the injection, the first group was orally given 0.2 ml of physiological saline, the second group orally given hololactoferrin (100% ferric ion saturated lactoferrin, 0.4 mg/mouse), the third through the sixth groups orally given cefaclor (2.0, 1.0, 0.5 and 0.25 mg/mouse each) in 0.2 ml of saline, and the seventh through the tenth groups orally given cefaclor (2.0, 1.0, 0.5 and 0.25 mg/mouse each) and hololactoferrin (100% iron saturated lactoferrin, 0.4 mg/mouse) in 0.2 ml of saline. The mice were fed ad libitum and observed for one week under the same conditions as described in Example 1.

Molecule | effect of the degree of iron-saturation on stability [1] | stability ([1]; room temperature) | potentiation of amoxicillin's efficacy [2] | mortality within 24 hours [3] | effect of the degree of iron-saturation on potentiation of beta-lactam antibiotics ([4]; 100%, 28% and 0% iron-saturated lactoferrin) | potentiating effect by timing of lactoferrin dosing ([4]; 12 hours before or six hours after the antibiotic administration) | potentiating effect by timing of lactoferrin dosing ([4]; from six hours before to one hour after the antibiotic administration) | potentiation of ampicillin efficacy in vivo [5] | potentiation of the antibiotic efficacy versus antibiotic treatment alone [6] | excretion in intact form in feces [7] | resistance to gastrointestinal digestion [7] | potentiation of antibiotic efficacy ([8]; lactoferrin doses from 50 to 0.05 mg per mouse, cefpodoxime) | lactoferrin dose at which potentiation reaches a plateau ([8]; with cefpodoxime) | rate of potentiation of antibiotic efficacy ([9]; fasted state) | rate of potentiation of antibiotic efficacy ([9]; fed state) | mortality [10] | mortality within 24 hours [11]
lactoferrin: bovine lactoferrin, the native one derived from cheese whey with 28.5% iron-saturation (protein, UniProt P24627 20-708, looked up, 28.5% iron-saturated, bovine lactoferrin, the native one derived from cheese whey with 28.5% iron-saturation) Lactotransferrin: APRKNVRWCTISQPEWFKCRRWQWRMKKLGAPSITCVRRAFALECIRAIAEKKADAVTLDGGMVFEAGRDPYKLRPVAAEIYGTKESPQTHYYAVAVVKKGSNFQLDQLQGRKSCHTGLGRSAGWIIPMGILRPYLSWTESLEPLQGAVAKFFSASCVPCIDRQAYPNLCQLCKGEGENQCACSSREPYFGYSGAFKCLQDGAGDVAFVKETTVFENLPEKADRDQYELLCLNNSRAPVDAFKECHLAQVPSHAVVARSVDGKEDLIWKLLSKAQEKFGKNKSRSFQLFGSPPGQRDLLFKDSALGFLRIPSKVDSALYLGSRYLTTLKNLRETAEEVKARYTRVVWCAVGPEEQKKCQQWSQQSGQNVTCATASTTDDCIVLVLKGEADALNLDGGYIYTAGKCGLVPVLAENRKSSKHSSLDCVLRPTEGYLAVAVVKKANEGLTWNSLKDKKSCHTAVDRTAGWNIPMGLIVNQTGSCAFDEFFSQSCAPGADPKSRLCALCAGDDQGLDKCVPNSKEKYYGYTGAFRCLAEDVGDVAFVKNDTVWENTNGESTADWAKNLNREDFRLLCLDGTRKPVTEAQSCHLAVAPNHAVVSRSDRAAHVKQVLLHQQALFGKNGKNCPDKFCLFKSETKNLLFNDNTECLAKLGGRPTYEEYLGTEYVTAIANLKKCSTSPLLEACAFLTR | not affected | very stable at room temperature | significantly potentiated | All the mice died within 24 hours | does not affect the potentiation | significant but less potent effect | the strongest | eight fold | 2.8 fold | considerable amounts are excreted in intact form in feces | highly resistant to gastrointestinal digestion | significantly potentiated the antibiotic efficacy at the same magnitude regardless of the dose | 0.05 mg per mouse | five fold | three fold | all mice in those groups died by one day post-injection; also recorded: died within 24 hours | –
hololactoferrin: 100% ferric ion saturated lactoferrin (protein, UniProt P24627 20-708, looked up, 100% ferric iron saturated, 100% ferric ion saturated lactoferrin) Lactotransferrin: APRKNVRWCTISQPEWFKCRRWQWRMKKLGAPSITCVRRAFALECIRAIAEKKADAVTLDGGMVFEAGRDPYKLRPVAAEIYGTKESPQTHYYAVAVVKKGSNFQLDQLQGRKSCHTGLGRSAGWIIPMGILRPYLSWTESLEPLQGAVAKFFSASCVPCIDRQAYPNLCQLCKGEGENQCACSSREPYFGYSGAFKCLQDGAGDVAFVKETTVFENLPEKADRDQYELLCLNNSRAPVDAFKECHLAQVPSHAVVARSVDGKEDLIWKLLSKAQEKFGKNKSRSFQLFGSPPGQRDLLFKDSALGFLRIPSKVDSALYLGSRYLTTLKNLRETAEEVKARYTRVVWCAVGPEEQKKCQQWSQQSGQNVTCATASTTDDCIVLVLKGEADALNLDGGYIYTAGKCGLVPVLAENRKSSKHSSLDCVLRPTEGYLAVAVVKKANEGLTWNSLKDKKSCHTAVDRTAGWNIPMGLIVNQTGSCAFDEFFSQSCAPGADPKSRLCALCAGDDQGLDKCVPNSKEKYYGYTGAFRCLAEDVGDVAFVKNDTVWENTNGESTADWAKNLNREDFRLLCLDGTRKPVTEAQSCHLAVAPNHAVVSRSDRAAHVKQVLLHQQALFGKNGKNCPDKFCLFKSETKNLLFNDNTECLAKLGGRPTYEEYLGTEYVTAIANLKKCSTSPLLEACAFLTR | – | – | – | – | – | – | – | – | – | – | – | – | – | – | – | – | died within 24 hours
